{"source": "patent US20260015418A1", "target": "human 4-1BB on Jurkat cells (Promega) (human) (UniProt Q07011)", "sequence (Q07011 24-255)": "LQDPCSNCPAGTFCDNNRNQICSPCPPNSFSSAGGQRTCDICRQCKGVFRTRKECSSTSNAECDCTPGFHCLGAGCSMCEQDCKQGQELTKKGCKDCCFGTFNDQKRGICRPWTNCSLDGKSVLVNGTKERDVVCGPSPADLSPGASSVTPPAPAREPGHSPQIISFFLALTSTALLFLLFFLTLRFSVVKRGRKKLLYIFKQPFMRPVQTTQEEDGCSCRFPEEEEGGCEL", "experiment": "cell-based or functional assay"}
{"substance": "Urelumab (BMS-663513) (antibody)", "values": [{"measurement": "EC50 (nM), 4-1BB NFκB luciferase reporter bioassay, CHO-hROR1 100%", "value": 0.235, "unit": "nM"}]}
